Reference: patent publication EP1780277A1

Target: intact IFNAR1 from human cells (human) (UniProt P17181)
Assay: cell-based or functional assay

UniProt P17181, sequence (P17181 28-557): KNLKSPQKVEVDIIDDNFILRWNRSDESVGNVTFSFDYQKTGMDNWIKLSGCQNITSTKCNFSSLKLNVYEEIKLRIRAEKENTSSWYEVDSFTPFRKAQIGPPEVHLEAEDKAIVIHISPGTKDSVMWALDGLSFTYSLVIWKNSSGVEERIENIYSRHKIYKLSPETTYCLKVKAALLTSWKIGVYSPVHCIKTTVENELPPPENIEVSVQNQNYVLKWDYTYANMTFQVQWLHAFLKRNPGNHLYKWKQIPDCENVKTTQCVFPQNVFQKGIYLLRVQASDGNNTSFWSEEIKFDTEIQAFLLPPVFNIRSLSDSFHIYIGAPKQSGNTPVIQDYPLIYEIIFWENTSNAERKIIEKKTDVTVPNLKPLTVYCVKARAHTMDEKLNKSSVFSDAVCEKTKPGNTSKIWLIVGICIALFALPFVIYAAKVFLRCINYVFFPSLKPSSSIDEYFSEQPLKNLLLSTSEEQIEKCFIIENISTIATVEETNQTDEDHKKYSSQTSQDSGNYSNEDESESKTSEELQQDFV

- growth inhibitory effect of IFN-β on myeloma cells (Alamar Blue), with antisense-1 oligonucleotide against IR1B4: < 5 fold
Substance: IR1B4/PRMT protein of human U266S cells (from UniProt Q99873 11-371)
